The record followed here is patent US20080069777A1.

Assay [1] concerns the target whole LFA-1 in which the α subunit contains an I-domain in the high affinity locked open state, on cells (HA cells) (human) (UniProt P05107). Nature of the assay: inhibition of ICAM binding to HA cells, Guava analysis; first experiment; first experiment.
For assay [2] the target is unchanged. Nature of the assay: inhibition of ICAM binding to HA cells, Guava analysis; second experiment; second experiment, second lot of D2-57 IgG.
The target is the same in assay [3]. Nature of the assay: cell-based or functional assay.
For assay [4] the target is unchanged. Nature of the assay: inhibition of ICAM binding to HA cells, Guava analysis; third experiment; third experiment.
For assay [5] the target is unchanged. Nature of the assay: inhibition of ICAM binding to HA cells, Guava analysis; second experiment; second experiment, first lot of D2-57 IgG.
The target is the same in assay [6]. The experiment in a line: inhibition of ICAM binding to HA cells, Guava analysis; fourth experiment; fourth experiment.
Assay [7] has the same target. Nature of the assay: phage ELISA, HA form of LFA-1, with Mg2+; phage ELISA on HA cells, with Mg2+. For orientation: An ELISA detects its analyte on a solid surface through an enzyme-linked reagent.
The target in assay [8] is whole LFA-1 in which the α subunit contains an I-domain in the low affinity locked closed state, on cells (LA cells) (human) (UniProt P05107). Nature of the assay: phage ELISA, LA form of LFA-1, without Mg2+.
Assay [9] addresses whole LFA-1 in which the α subunit contains an I-domain in the high affinity locked open state, on cells (HA cells) (human) (UniProt P05107). Nature of the assay: ICAM-1 blocking assay on HA cells, soluble Fab, flow cytometry; ligand ICAM-1/SV-PE; soluble Fab, ICAM-1 blocking on HA cells, FACS. Background: A flow cytometer gives signals particle by particle.
The target is the same in assay [10]. Nature of the assay: phage ELISA, HA form of LFA-1, without Mg2+; phage ELISA on HA cells, without Mg2+; signal at background.
Assay [11] concerns the target whole LFA-1 in which the α subunit contains an I-domain in the low affinity locked closed state, on cells (LA cells) (human) (UniProt P05107). Nature of the assay: phage ELISA, LA form of LFA-1, with Mg2+.

B1: D2-57 IgG1 (antibody, V domains shown)
VH: EVQLLESGGGLVQPGGSLRLSCAASGFTFSRYVMWWVRQAPGKGLEWVSYIWPSGGNTYYADSVKGRFTISRDNSKNTLYLQMNSLRAEDTAVYYCASSYDFWSNAFDIWGQGTMVTVSS
VL: DIQMTQSPSSLSASVGDRVTITCRASQSIGSYLNWYQQKTGKAPKALIYAASSLQSGVPSRFSGSGSGTDFTLTISSLQLEDFATYYCQQSYSTPSFGQGTKVEIKR
As to B1, the IC50 in assay [1] turned out to be 0.18 nM; in assay [2] it was 0.62 nM; in assay [4], 0.24 nM; in assay [5] it was 0.59 nM; in [6] it was 0.68 nM. In assay [3], this molecule registered an IC50 for inhibition of HA cell binding to keratinocytes of 1 nM.

B2: D2-57 Fab (Fab, V domains shown)
VH: B1 VH
VL: B1 VL
B2: the ELISA signal (arbitrary units) in assay [7] was found to be 0.68; in assay [8], 0.07; in [10] it was 0.09; in assay [11], 0.13. Moreover, the IC50 in assay [9] was 11.5 nM.

Usually IC50 stands for the point on the concentration scale where inhibition reaches its midpoint. A low value points to inhibition by little substance.
